The subject of series [1] is bEnd.3 brain endothelioma cells. Kind of series: BEB in vitro integrity assay (FD4 probe). In kind it is in vitro ADME. The following applies: FD4 added after each TAT-TrkB translocation assay, 2 h.
Protocol: (§1) To evaluate the ability of the TAT-TrkB peptide to translocate the BEB, the inventors used a well-established in vitro model^15. It comprises a transwell system with an insert in which bEnd.3 brain endothelioma cells (ATTCC-CRL-2299, Lot. 59618606) are cultured for 9 days. In this model, the apical chamber replicates the blood compartment, while the basolateral chamber replicates the brain compartment (FIG. 7a). For these experiments, 6-FAM was fused to the N-terminal of the TAT-TrkB peptide, in order to detect the peptide by fluorescence. The TAT-TrkB-6-FAM peptide (5 μM, diluted in DMEM without phenol red) was delivered to the apical compartment. After incubation times of 1 h, 4 h and 24 h, in different inserts, medium from the apical and basolateral compartments was collected and fluorescence measured at 495 nm excitation and 517 nm emission wavelengths using the Varioskan LUX Multimode microplate reader (Thermo Scientific, Rockford, IL, USA ThermoFisher Scientific). Peptide translocation was quantified as the fluorescence detected in the basolateral compartment normalized to the sum of the fluorescence detected in both compartments. […] For these, FD4 fluorescent probe (diluted in DMEM without phenol red to a final absorbance below 0.1) was added to the apical compartment of the same inserts and incubated for 2 h. […]
The test system is the same in series [2]. Conditions: TAT-TrkB-6-FAM 5 μM apical; 1 h, 4 h and 24 h.
Protocol: as §1
Series [3] addresses T1, TrkB-FL (Rattus norvegicus, UniProt Q63604). Kind of series: Aβ-driven TrkB-FL cleavage in primary neuronal cultures (Western blot). It counts as cell-based. Set-up: Western-blot of neuronal cultures; endogenous in cells; host or cells: primary cortical neuronal cultures from E17-E18 embryos. Conditions: DIV8 neuronal cultures, peptide without linker, 20 μM (1, 5, 20 and 50 μM). The method, then: Primary neuronal cultures were prepared as routinely in the lab^6. Briefly, animals were deeply anesthetized with isoflurane ([…], Barcelona, Spain) in an anaesthesia chamber before being sacrificed by decapitation. Embryos (E17-E18) were rapidly removed from the uterus and brains were dissected and placed in cold Ca^2+- and Mg^2+-free Hank's Balanced Salt Solution (HBSS) (Gibco, Paisley, UK). Cerebral cortex was isolated, mechanically fragmented and digested with 0.025% (wt/vl) trypsin solution (Gibco, Paisley, UK) in HBSS for 15 min at 37° C. After digestion, cells were precipitated by centrifugation at 1200 rpm. The supernatant was removed and 20% Fetal Bovine Serum (FBS) (Gibco, Paisley, UK) was added to HBSS. […] To obtain single cells and avoid cellular clusters or tissue fragments, the suspension was filtered with a nylon filter (BD FalconTM Cell Strainer 70 μM, Thermo Fisher Scientific, Waltham, MA, USA) and cell density was determined by counting cells in a 0.4% trypan blue solution using a hemacytometer. […] Finally, immunoreactivity was detected using the ECL system (ECL chemiluminescence detection system, GE Healthcare), an appropriate exposure time in a ChemiDoc (Bio-Rad, XRS^+) and quantified by the digital densitometry tool of ImageJ 1.45 software (Bethesda, MD, USA). […]
(A western blot detects proteins with antibodies after separation by electrophoresis.)

Series [4] addresses T1, TrkB-FL. Briefly: Calpain in vitro assay, adult rat brain cortex homogenate (Western blot). Conditions: peptide without linker 20 μM, m-calpain 1 or 2 EU, CaCl2 2 mM. It counts as biochemical. Set-up: rat cortical tissue or neuronal cultured cells were homogenized in Radio Immuno Precipitation Assay (RIPA) buffer; from tissue; host or cells: adult rat brain cortex homogenate (100 μg protein). As to the method:
For calpain enzymatic assays, rat cortical tissue or neuronal cultured cells were homogenized in Radio Immuno Precipitation Assay (RIPA) buffer, containing 50 mM Tris-HCl [pH=7.5], 150 mM NaCl, 5 mM ethylenediamine tetra-acetic acid, 0.1% sodium dodecyl sulfate (SDS), 1% [v/vl] Triton X-100, protease inhibitors (Roche, Penzberg, Germany) and phosphatase inhibitors (10 mM NaF and 5 mM Na3VO4). For tissue homogenization, Vibracell VC250 Ultrasonic Liquid Processor was used (Sonics & Materials, Inc, CT, USA). Protein concentration was measured using Bio-Rad DC reagent (Bio-Rad Laboratories, Berkeley, CA, USA) after homogenates clarification by centrifugation (16,000 g, 4° C., 10 min). The purified rat m-calpain (1 or 2 enzymatic units, EU) (Calbiochem, San Diego, CA, USA) was incubated for 30 min at 25° C. in a 100 μL final volume of lysis buffer containing the homogenate protein (100 μg for rat brain cortex experiments and 65 μg for neuronal cultured cells), 2 mM of CaCl2 and TAT-TrkB peptide (5, 20 or 50 μM). […] Finally, immunoreactivity was detected using the ECL system (ECL chemiluminescence detection system, GE Healthcare), an appropriate exposure time in a ChemiDoc (Bio-Rad, XRS^+) and quantified by the digital densitometry tool of ImageJ 1.45 software (Bethesda, MD, USA). […]

The mark [5] stands for this setting: listed as TAT-TrkB without a linker sequence.

“Also recorded” adds a separate entry of the source. Where no end group is shown, it is not given here.

T1 sequence (Q63604 32-821): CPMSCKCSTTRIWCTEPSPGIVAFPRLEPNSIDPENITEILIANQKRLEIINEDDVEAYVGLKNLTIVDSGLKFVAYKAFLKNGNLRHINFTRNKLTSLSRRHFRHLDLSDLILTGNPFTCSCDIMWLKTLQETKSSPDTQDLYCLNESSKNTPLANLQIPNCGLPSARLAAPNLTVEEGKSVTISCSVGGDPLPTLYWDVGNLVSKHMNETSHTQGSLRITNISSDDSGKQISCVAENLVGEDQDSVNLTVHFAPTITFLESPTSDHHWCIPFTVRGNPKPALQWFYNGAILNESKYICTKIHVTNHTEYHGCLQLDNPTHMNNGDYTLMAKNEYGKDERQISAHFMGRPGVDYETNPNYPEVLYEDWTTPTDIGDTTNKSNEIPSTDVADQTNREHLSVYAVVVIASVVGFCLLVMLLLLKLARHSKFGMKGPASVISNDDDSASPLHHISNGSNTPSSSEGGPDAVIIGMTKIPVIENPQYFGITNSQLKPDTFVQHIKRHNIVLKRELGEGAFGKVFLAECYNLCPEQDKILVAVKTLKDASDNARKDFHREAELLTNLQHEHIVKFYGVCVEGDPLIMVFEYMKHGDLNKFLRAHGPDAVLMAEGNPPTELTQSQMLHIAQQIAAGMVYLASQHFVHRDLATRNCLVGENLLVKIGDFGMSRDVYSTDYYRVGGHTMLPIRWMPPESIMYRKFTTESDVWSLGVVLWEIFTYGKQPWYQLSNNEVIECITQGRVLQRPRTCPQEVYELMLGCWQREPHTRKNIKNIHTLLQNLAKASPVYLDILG

Take YGRKKRRQRRRKKFGITNSQLKP [TAT-TrkB]: the “BEB integrity (clearance of FD4 from the apical chamber)” value in series [1] is listed as “without affecting its integrity; also recorded: negligible”. Besides, in series [2], the “translocation of the BEB” value is recorded as “translocated the BEB overtime”.
Regarding “YGRKKRRQRRRPQYFGITNSQLKPDTF [SEQ ID NO: 25, first version of TAT-TrkB without the linker]”, the figures for the “TrkB-FL cleavage and TrkB-ICD formation with Aβ incubation” value with TrkB-FL [3] and with TrkB-FL [3] (setting [5]) were “not able to prevent TrkB-FL cleavage” and “not prevented”, respectively. Moreover, the “TrkB-FL cleavage and TrkB-ICD formation by m-calpain” value with TrkB-FL [4] is “not able to prevent TrkB-FL cleavage”; with TrkB-FL [4] (setting [5]) it was “not prevented”.

(Values after patent US20230321189A1, “THERAPEUTIC AGENTS, PHARMACEUTICAL COMPOSITIONS, AND ASSOCIATED BIOMARKERS BASED ON TRK-B” (INSTITUTO DE MEDICINA MOLECULAR JOÃO LOBO ANTUNES, priority 2020, published 2023).)
